Data taken from the supplement of paper PMC10567573.

B1: CDC25B (parent)
chain: ELKTFRLKTRSWAGERSRRELCSR
B2: KRT71 (parent)
chain: FGSRSLYSLGGVRSLNVASGSGKS

Variants of: B1
Test: protein stability index of a GFP-peptide fusion (GPS, HEK-293T) (PSI 1-6); higher = more stable
Settings: c terminus: a fixed tail appended
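Note: lentivirally expressed fusions sorted by FACS into six bins by GFP to DsRed ratio, PSI derived from sequencing read proportions per bin multiplied by bin number.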

Protein stability index of substitutions, site by site:
E1: N 3.01 | T 2.69 | S 3.2 | Y 2.19 | D 3.03 | W 2.6 | H 3.29 | G 3.09 | K 2.97 | L 2.8 | I 1.9 | C 3.07 | V 3.31 | A 3.96 | P 3.72 | Q 3.57 | R 3.03 | M 2.2 | F 1.95
L2: A 4.42 | C 4.24

Variants of: B2
Test: as above
Settings: c terminus: a fixed tail appended

Protein stability index: each site, then its substitutions
S8: W 2.62 | V 2.23 | L 2.2 | T 1.89 | N 2.4 | Q 1.72 | M 1.38 | I 1.54 | K 2.14 | R 1.69 | P 1.72 | Y 1.2
A18: R 2.46 | N 2.81 | G 2.1 | I 1.39 | H 2.39 | L 2.27 | T 1.62 | V 1.88 | W 2.87 | Q 1.78 | E 2.11 | Y 2.94 | D 1.62 | F 1.9 | S 2.65 | M 2.95 | C 1.73 | P 2.2 | K 2.63
S21: D 2.04 | P 2.07 | C 1.49 | A 1.83 | T 1.93 | N 1.69 | V 1.41 | F 1.73 | M 1.87 | L 2.11 | E 1.92 | G 1.91 | Q 2.29 | K 2.06 | I 2.18 | H 2.11 | W 1.24 | R 2.5
G22: Q 2.09 | A 1.53 | C 1.69 | H 2.75 | W 2.36 | K 1.73 | D 2.15 | F 1.49 | M 1.93 | R 2.48 | L 1.64 | E 2.83 | I 1.57 | T 1.45 | Y 2.44 | P 1.89 | N 2.27 | V 1.33 | S 1.93
R13: L 2.27 | C 2.29 | S 2.48 | V 1.74 | H 1.81 | K 1.34 | P 1.81 | G 1.45 | D 2.06 | E 1.86 | W 1.67 | M 1.26 | I 1.93 | T 1.28 | Q 1.43 | A 3.09 | Y 1.7 | N 1.87 | F 1.72
G10: W 2.79 | M 2.09 | V 1.58 | L 2.6 | Y 1.94 | I 3.84 | F 1.5 | N 2.16 | R 1.6 | H 2.56 | Q 2.08 | S 1.83 | K 1.9 | A 1.66 | C 3.19 | T 2.05 | D 2.51 | P 2.03 | E 2.31
N16: Q 2.44 | V 2.06 | K 2.02 | R 2.07 | T 1.47 | D 2.38 | L 1.73 | Y 2.16 | C 1.97 | A 1.93 | I 1.29 | M 1.83 | S 2.15 | P 2.04 | E 1.73 | F 2.22 | H 2.21 | W 2.95 | G 1.1
L15: R 2.28 | H 1.37 | K 1.99 | V 2.07 | E 2.15 | S 1.92 | W 1.34 | A 2.35 | M 2.18 | C 2.35 | I 1.7 | D 1.61 | G 1.88 | P 2.02 | N 2.33 | F 1.77 | T 1.92 | Y 2.62 | Q 2.51
V17: E 1.59 | Y 2.07 | M 2.38 | W 1.86 | L 2.5 | D 2.13 | I 1.94 | S 1.92 | Q 1.97 | G 1.91 | N 1.83 | A 1.91 | F 2.17 | R 1.7 | C 2.31 | K 2.01 | T 2.52 | H 1.97 | P 1.92
L9: E 2.59 | W 1.87 | Y 1.77 | N 2.51 | C 2.12 | T 2.64 | K 2.27 | P 2.6 | G 2.66 | R 2.56 | V 2.62 | D 2.56 | Q 2.79 | I 1.75 | M 1.83 | S 2.18 | H 2.75 | A 2.5 | F 1.88
S14: K 1.81 | F 1.89 | Q 1.86 | P 1.71 | N 2.38 | W 1.44 | D 1.92 | M 1.65 | E 2.66 | R 1.5 | H 2 | A 1.59 | C 1.58 | L 2.04 | I 1.38 | T 1.74 | G 2.04 | Y 2.36 | V 1.03
V12: C 1.55 | W 1.71 | Y 1.65 | G 2.13 | F 1.66 | K 2 | P 2.2 | N 2.28 | D 2.05 | E 2.3 | Q 2.11 | R 2.37 | M 1.68 | I 2.12 | S 2.45 | A 1.81 | L 2.21 | T 2.27 | H 1.68
K23: D 1.92 | R 2.35 | F 2.47 | N 2.09 | P 2.15 | S 1.9 | M 1.49 | A 1.47 | V 1.88 | C 1.97 | H 2.03 | W 2.56 | L 1.74 | T 1.56 | Y 1.69 | Q 1.77 | G 2.09 | I 2.12 | E 2.03
G11: S 2.11 | N 2.24 | L 2.9 | K 1.64 | I 5.35 | V 4.85 | C 2.87 | W 2.62 | T 2.4 | Q 3.2 | M 2.71 | P 1.8 | H 2.33 | D 2.25 | Y 3.77 | R 2.46 | E 2.92
G20: N 1.82 | R 1.97 | T 2.16 | A 1.96 | F 2.04 | S 1.87 | Y 1.87 | W 1.82 | H 1.67 | M 1.49 | C 1.54 | V 1.92 | D 2.18 | L 1.55 | K 1.5 | E 1.49 | P 2 | I 1.72 | Q 1.87
S24: D 1.89 | H 1.66 | V 1.26 | N 1.7 | C 1.71 | Q 1.55 | L 1.76 | E 2.21 | K 2.22 | R 1.49 | A 1.73 | G 1.97 | F 1.41 | I 1.61 | M 1.62 | T 1.81 | Y 1.39 | P 2.33 | W 1.74
S19: G 1.67 | K 2.23 | I 1.44 | D 1.89 | T 2.06 | Q 2.03 | A 1.8 | W 2.85 | L 1.47 | M 1.88 | F 1.47 | P 1.8 | V 2.54 | N 2.38 | R 1.92 | E 1.98 | H 1.53 | Y 1.89 | C 1.47
